Results taken from US10654939.

Legend:
[1] = biological target: recombinant rhesus CD40 (ECD)-hFc (rhesus monkey); assay: ELISA, rhCD40(ECD)-hFc coated
[2] = biological target: rhesus CD40 expressed on HEK293A cells (rhesus monkey); assay: FACS, HEK293A/rhesusCD40 cells
[3] = biological target: recombinant human CD40 (ECD)-his (human) (UniProt P25942); assay: SPR (Biacore 8K), hCD40(ECD)-his coupled to chip, antibody injected
[4] = biological target: human CD40 expressed on cells (human) (UniProt P25942); assay: FACS, HEK293A/humanCD40 cells
Sequence of human CD40 expressed on cells (human) (P25942 21-277 limits assumed): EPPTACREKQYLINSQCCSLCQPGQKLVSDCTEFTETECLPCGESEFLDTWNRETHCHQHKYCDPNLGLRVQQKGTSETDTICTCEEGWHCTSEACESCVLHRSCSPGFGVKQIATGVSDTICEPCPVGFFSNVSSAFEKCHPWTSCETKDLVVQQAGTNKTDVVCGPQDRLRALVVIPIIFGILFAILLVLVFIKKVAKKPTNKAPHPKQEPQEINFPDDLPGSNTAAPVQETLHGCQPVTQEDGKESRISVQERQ

[5] = biological target: recombinant human CD40 (ECD)-his (human) (UniProt P25942); assay: ELISA, hCD40(ECD)-his coated
[6] = biological target: human CD40 expressed on cells (human) (UniProt P25942); assay: cell-based or functional assay

Sequence of RO7009789 (antibody) (VH): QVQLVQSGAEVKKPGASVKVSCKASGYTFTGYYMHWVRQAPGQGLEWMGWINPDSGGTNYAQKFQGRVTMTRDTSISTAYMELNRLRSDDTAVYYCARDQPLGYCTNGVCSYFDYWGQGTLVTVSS
Sequence of RO7009789 (antibody) (VL): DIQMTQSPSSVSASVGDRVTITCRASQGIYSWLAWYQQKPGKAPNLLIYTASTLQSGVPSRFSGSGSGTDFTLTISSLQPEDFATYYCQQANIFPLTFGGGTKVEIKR
Sequence of recombinant human CD40 (ECD)-his (human) (P25942 21-193): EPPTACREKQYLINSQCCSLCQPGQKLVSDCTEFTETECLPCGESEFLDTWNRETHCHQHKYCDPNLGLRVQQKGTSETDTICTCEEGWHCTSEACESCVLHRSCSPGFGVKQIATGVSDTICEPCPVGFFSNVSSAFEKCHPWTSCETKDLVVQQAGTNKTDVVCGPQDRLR
Sequence of recombinant rhesus CD40 (ECD)-hFc (rhesus monkey) (P25942 other isoform, or with tags, fused parts or gaps): as the sequence (P25942 21-193) above, with G43S, H56R, W89L, T92M, A95S, L101P, S106L, H142R, L172Q counted along it
Sequence of rhesus CD40 expressed on HEK293A cells (rhesus monkey) (P25942 other isoform, or with tags, fused parts or gaps limits assumed): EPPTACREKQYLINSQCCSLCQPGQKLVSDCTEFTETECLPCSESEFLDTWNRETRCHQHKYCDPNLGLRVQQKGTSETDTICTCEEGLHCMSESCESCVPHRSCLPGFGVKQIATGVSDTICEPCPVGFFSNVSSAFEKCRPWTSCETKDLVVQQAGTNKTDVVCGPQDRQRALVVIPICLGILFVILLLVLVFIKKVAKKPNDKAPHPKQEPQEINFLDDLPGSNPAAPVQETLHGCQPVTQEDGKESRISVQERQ

EC50 [1]: 0.0162 µg/mL
EC50 [2]: 0.185 µg/mL
Kd [3]: 1.71 nM
EC50 [4]: 0.227 µg/mL
EC50 [5]: 0.0207 µg/mL
HEK Blue EC50 [6]: 0.0233 µg/mL
Substance: RO7009789 (antibody)
